According to article PMC10570013:

Target: Nsp8 NTD (SARS-CoV-2, UniProt P0DTD1)
Assay: NMR

B1: model dsRNA (dsRNA)
RNA 1: GAUGCUACGCGGUAGUA
RNA 2: GUACUACCGCGUAGCAUC
Kd: ~14.1 µM
